Tested on: NKTs
Assay: CD62L expression by flow cytometry on day 12 after antigenic stimulation of NKTs treated with Wnt activators
Assay type: cell-based, human
Conditions: for development of CD62L+ NKTs: day 12
Experimental: PBMC of healthy donors (at least 18 years old) are isolated by gradient centrifugation from buffy coats purchased from Gulf Coast Regional Blood Center. NKTs are purified by anti-iNKT microbeads (Miltenyi Biotec). The negative PBMC fraction is irradiated (40 Gy) and aliquoted. NKTs are stimulated with an aliquot of autologous PBMCs pulsed with 100 ng/niL αGalCer (Kyowa Hakko Kirin). Recombinant IL-2 (200 U/ml, National Cancer Institute Frederick) is added every other day in complete RPMI (HyClone RPMI 1640, 10% heat inactivated fetal bovine serum and 2 mM Glutamax). NKTs are expanded for 10 days and then re-stimulated with autologous PBMC (irradiated with 40 Gy) or Ramos cells as aAPC (irradiated with 100 Gy) when indicated. On day 3 after re-stimulation, 24 well, non-tissue culture plates are coated with retronectin (Takara Bio) and after washing inoculated with 1 ml of retroviral supernatant containing the constructs shown in FIG. 27 and described above and spun for 60 min at 4600 G. The viral supernatant is then removed and stimulated NKTs are added to the wells in complete media and 200 U/ml rhIL-2. Cells are removed from the plate after 48 h, washed, re-suspended at the concentration 10^6 cell/ml in complete RPMI with 200 U/ml IL-2 and plated for continued expansion. NKT-cell number is determined by Trypan Blue (Life technologies) counting. When indicated, NKTs or CAR-NKTs are labeled with CD62L-PE mAb (GREG-56, BD Biosciences) and anti-PE microbeads (Miltenyi) followed by magnetic sorting into CD62L+ and CD62L− subsets according to the manufacturer's instructions. The phenotype of the sorted cells was determined by FACS.
NKTs are stimulated as described in Example 2 but treated with three separate doses of PBS or 500 ng/mL Wnt3a given on day 0, 3 and 7 after antigenic stimulation. CD62L expression is examined by flow cytometry on day 12 after antigenic stimulation. […]
Following primary stimulation, NKTs are cultured with IL-2 or IL-2/IL-21 for 12 days. […] CD62L expression is analyzed by flow cytometry at the end of expansion.

Row | Molecule | development of CD62L+ NKTs (one dose 5 μM on day 7 after antigenic stimulation vs DMSO, n=6 donors) | development of CD62L+ NKTs (500 ng/mL on day 0, 3 and 7 vs PBS, n=3 donors) | CD62L frequency (500 ng/ml on days 0, 1, 2, culture with IL-2 or IL-2/IL-21 for 12 days)
1 | Nc1cccc(-c2cc3c(Oc4cccc(O)c4)ncnc3[nH]2)c1 [TWS119, reference compound] | promotes development of CD62L+ NKTs |  | 
2 | Wnt3a: recombinant Wnt3a, Wnt ligand (protein, UniProt P56704 19-352, looked up) Protein Wnt-3a: SYPIWWSLAVGPQYSSLGSQPILCASIPGLVPKQLRFCRNYVEIMPSVAEGIKIGIQECQHQFRGRRWNCTTVHDSLAIFGPVLDKATRESAFVHAIASAGVAFAVTRSCAEGTAAICGCSSRHQGSPGKGWKWGGCSEDIEFGGMVSREFADARENRPDARSAMNRHNNEAGRQAIASHMHLKCKCHGLSGSCEVKTCWWSQPDFRAIGDFLKDKYDSASEMVVEKHRESRGWVETLRPRYTYFKVPTERDLVYYEASPNFCEPNPETGSFGTRDRTCNVSSHGIDGCDLLCCGRGHNARAERRREKCRCVFHWCCYVSCQECTRVYDVHTCK |  | promotes development of CD62L+ NKTs | works additively with IL-21 to increase CD62L frequency
